Measurements published in the DeepSol protein solubility set.

Assay: soluble on expression in E. coli; label from the status in PepcDB or PDB records

Sequence	soluble on expression in E. coli
MEVAVEKAVAAAAAASAAASGGPSAAPSGENEAESRQGPDSERGGEAARLNLLDTCAVCHQNIQSRAPKLLPCLHSFCQRCLPAPQRYLMLPAPMLGSAETPPPVPAPGSPVSGSSPFATQVGVIRCPVCSQECAERHIIDNFFVKDTTEVPSSTVEKSNQVCTSCEDNAEANGFCVECVEWLCKTCIRAHQRVKFTKDHTVRQKEEVSPEAVGVTSQRPVFCPFHKKEQLKLYCETCDKLTCRDCQLLEHKEHRYQFIEEAFQNQKVIIDTLITKLMEKTKYIKFTGNQIQNRIIEVNQNQKQVEQDIKVAIFTLMVEINKKGKALLHQLESLAKDHRMKLMQQQQEVAGLSKQLEHVMHFSKWAVSSGSSTALLYSKRLITYRLRHLLRARCDASPVTNNTIQFHCDPSFWAQNIINLGSLVIEDKESQPQMPKQNPVVEQNSQPPSGLSSNQLSKFPTQISLAQLRLQHMQQQVMAQRQQVQRRPAPVGLPNPRMQGPIQQPSISHQQPPPRLINFQNHSPKPNGPVLPPHPQQLRYPPNQNIPRQAIKPNPLQMAFLAQQAIKQWQISSGQGTPSTTNSTSSTPSSPTITSAAGYDGKAFGSPMIDLSSPVGGSYNLPSLPDIDCSSTIMLDNIVRKDTNIDHGQPRPPSNRTVQSPNSSVPSPGLAGPVTMTSVHPPIRSPSASSVGSRGSSGSSSKPAGADSTHKVPVVMLEPIRIKQENSGPPENYDFPVVIVKQESDEESRPQNANYPRSILTSLLLNSSQSSTSEETVLRSDAPDSTGDQPGLHQDNSSNGKSEWLDPSQKSPLHVGETRKEDDPNEDWCAVCQNGGELLCCEKCPKVFHLSCHVPTLTNFPSGEWICTFCRDLSKPEVEYDCDAPSHNSEKKKTEGLVKLTPIDKRKCERLLLFLYCHEMSLAFQDPVPLTVPDYYKIIKNPMDLSTIKKRLQEDYSMYSKPEDFVADFRLIFQNCAEFNEPDSEVANAGIKLENYFEELLKNLYPEKRFPKPEFRNESEDNKFSDDSDDDFVQPRKKRLKSIEERQLLK	soluble
MEVEYMNFNELNLSDNILNAIRNKGFEKPTDIQMKVIPLFLNDEYNIVAQARTGSGKTASFAIPLIELVNENNGIEAIILTPTRELAIQVADEIESLKGNKNLKIAKIYGGKAIYPQIKALKNANIVVGTPGRILDHINRGTLNLKNVKYFILDEADEMLNMGFIKDVEKILNACNKDKRILLFSATMPREILNLAKKYMGDYSFIKAKINANIEQSYVEVNENERFEALCRLLKNKEFYGLVFCKTKRDTKELASMLRDIGFKAGAIHGDLSQSQREKVIRLFKQKKIRILIATDVMSRGIDVNDLNCVINYHLPQNPESYMHRIGRTGRAGKKGKAISIINRREYKKLRYIERAMKLKIKKLKFG	soluble
MEVFVFTPKGDLYKMPKGATVLDFAFAIHSKLGSKCIGAKVNGKNAQLKQTLNSGLEHHHHHH	not soluble
MEVKELERDKNRVVLEYVFGAEEIAQAEDKAVRYLNQRVEIPGFRKGRIPKNVLKMKLGEEFQEYTLDFLMDLIPDTLKDRKLILSPIVTERELKDVTARVVVEVHEEPEVRIGDISKIEVEKVDEEKVLEKYVERRIEDLRESHALLEPKEGPAEAGDLVRVNMEVYNEEGKKLTSREYEYVISEDEDRPFVKDLVGKKKGDVVEIEREYEGKKYTYKLEVEEVYKRTLPEIGDELAKSVNNEFETLEQLKESLKKEGKEIYDVEMKESMREQLLEKLPEIVEIEISDRTLEILVNEAINRLKREGRYEQIVSSYESEEKFREELKERILDDIKRDRVIEVLAQEKGISVNDEELEKEAEELAPFWGISPDRAKSLVKARQDLREELRWAILKRKVLDLLLQEVKVKVVEPKGEGDDSEGKEDNLEHHHHHH	soluble
MEVPKNPYESTWTGYDFYYEKEPKKVPPSAGSGKMPAFQSIASISTDRESPEDPGNSGYLASGAESGPKKTTSKPATTPTPEPTTTPVEEEKVKVSPSSSTKDPSKLHKTTKTPVTITNIISTTTAPPAPSRAPENDPESGSDQSESTDNLDLLYGGGSSATATGEDKKARHSTTNNPNFCTDPPKLHDPPPPHPSAPQNLLTQLIQKKKDAPNKGSSEKSSKWSDDHASGYPEGSAPSAEPSENQYEQDGSIPSSNDYKELTDVPGTKPSSSASRGSNMAGNPTAPLTTTQHTFAPNSTETSRSSTSRGKAPGTEPKSEARYSSQNPYSDNSSTQKPEYESGYPAVSGANSRAQIPNITDYTKPSAVSIEYASSSKERSDPPFSTPLTSNSQHVLTQPRPRDYEDGPQETTRTKASGTKSPNSLQAPQQTAAHLMKNARAPGPEPSLHSTTTHHVQTPIITIAPKFSEPSPYAENIMLTPKQAPGTEPRSNSQNPQTDRLASQSGYESGGPGRPQNVSIRHRENPKGSDAISRTAITPSKIDYFAPSSPTGPIGYERQVPSFKEGPDHQYTKYSTLNSPPAPSPQESSTITHHVSTSPDFLEPSSESSVLLPKQAPGTNPSTSNSPPGYSELIGPSGPESQGYEPMGNNGPSIFEGPGTESGYSEPKALSTASQKTKPDDKPYEIPRSIEPSNSKPYPSDSSWSDHDNAPGSEPSYIPDVLDYGARANNHAGKMMNMSHATSPSTGSPSNSNNAISARDPYDHFGTITAPSDIPRANSNFEEYPDDGGYDGTNDVAIVPLRTQHGTNPSTITTTNTQVRAQISEIDRIAESFENSAREPVEYEQRITSESSKGITAVTGKDFMKKLGRKSPTCCSCCDEKQSVSRNIETQADPLHVQHAVDPSRQLVESEPVQNFVPLQNTVGGNAYIQPQPVAQQQTIYQQPFQQYQPQYPQSYQQPSCGCQPQPQNCCAPPAPCCLPTIPCCPPIPCCPQPKICCQPAPVCLPPPTCCSINFKLPTIPICGRACPSCPCRRRMHKSRRLKRHSINSNCHQCSSAGEPWRSVLHHREKRAAPGCTSGFSTMSQNSCGTCGASNLRSPRVKRMGCLPCLGRKKRDTDENSHIRVKRMGCLPCLGRKKRSTLSQSGCSQCNSMGHLFNRYKRSLFGGCSPCAPQQPCGCGRKKRSVTMKLVKRAPMQCDSTCCDFSRCPYRQKKEALVPFM	not soluble
MEVTNGLNLKDTELRLGLPGAQEEQQLELSCVRSNNKRKNNDSTEESAPPPAKTQIVGWPPVRSNRKNNNNKNVSYVKVSMDGAPYLRKIDLKMYKNYPELLKALENMFKFTVGEYSEREGYKGSGFVPTYEDKDGDWMLVGDVPWDMFSSSCQKLRIMKGSEAPTAL	not soluble
MEWGVRFYVLSKQEWKQQTIDRCGQFYCLVPSNAGFHVYLFVTMDTGENAVFVFPPHFFIRYRERYWGKHSTLSGKILRKTYLKDNLVMRYGLQPGSEERVTGARIYSASSHGVALGIVLNDEAYLFKTFITYAMTKGEQIPLYMQEKLSMERAQVEYYNTGRLADLVELEERDRKRREMLMAEERRREEKEKRRAAEPGEAYFYVEGPLTLIMPDEEIQEENTGFWQRGTTMFCDSKLIEESQREMRELASVEARIQELKNIPQKAEEKKGVFKRLFGRYF	not soluble
MEYKSPVYGIIAVPIEKIESNDYNPNAVAPPEMQLLYKSIKEDGYTMPIVCYYNEEKDKYIIVDGFHRYRVMLENEDIYDRENGLLPVSVIDKSLDERMASTIRHNRARGSHNVDLMSKIITELCEIGKSDEWISKHLGMEVDEILRLKQITGLAYLFKDKEFGNAWIPFGSDIEEEN	not soluble
MEYLDEIKTLGLKPNTITYSMLMLASERKDDFEVSFKLLSQAKGDGVSPNLIMCRCITSLCKRRFEKACAGGEPVVSFKSGRPQIENKWTSMALMVYRETISGGTVPTTEVVSQVLGCLQLPHDAALRDRLISTLGINISSQKQHNIFPLVDGFGEYDPRAFSLLEEATSLGVLPSVSFNKIPLFFDTTELPKNVAEVYLLTIFKGLKHRLAAGAKIPHINLIISIQEKEIRTPEGEKTIDLTGRVGQEIGALLRRGFKIIASTIRKPNQSSATQHSTREPVT	not soluble
MFARAPFVRLLSTTSRNLAEAEKKVSKEALMALRKKTGYSYVNCRKALIQFGENDMDSAVKWLKEAAAKEGWAKAAKLGTRVTSNGLVSVVTDNSTAAVVELSCETDFVARSGAFKDLLSNISNSVLAKAKPQSISSGSKLQEFTYDLGDLTDSDGKNMREVLSLSIGKLGENMTVRRVKAFKAPEGTTLFGASHPKDGTDDIPMGRFISLIALNQSSPGSISSQQLAGQICQHIIGMSPESLGEAAESVKTQEGLRSQEGHDPNADPVVVTNIDESETALLRQAFMLNPSQSVHEYLKSHNANILDFVRVELGSE	not soluble
MFCTSEAAVDMDSGRGDIRRLKDGEILKYTSGIFSSKWKKMYAVLFSDSRLVWFENRGDRKPKGSVLLKDVIPYICVGLMTDRMPVKRPNVPEGNSVHHLVGIGMNPKADPCHWILFSSDSDIESWFTEITKTLPKPANPPPNAPQQGPGAQPPQQQNNGGYVPPTVYPSAPPPVQPGYNPRPASGQSYPSGPQVPPAYGQYPQPGYPQPAGVPTSSHTTVIVRDGGYGGGGYGGYGGGGGGFGSTGLGFGSGILAGSLLGYGLGSMWGGHHSYGGWGGGYGGGGYGMAGGYYSDNDTTVTNNYYNYGDNDNNGGNNHSSSSNAITDAPGNAGDQSQQQSDNNYGNANQDSYDQGNDYGNDYGNAGYDSGDFGGGDYGGGGYDSGDFGGGDFGGGDFGGGDFGGGDY	not soluble
MFDRYDAGEQAVLVHIYFSQDKDMEDLQEFESLVSSAGVEAMQVITGSRKAPHPKYFVGEGKAVEIAEAVKATGAAVVLFDHALSPAQERNLERLCECRVIDRTGLILDIFAQRARTHEGKLQVELAQLRHLATRLVRGWTHLERQKGGIGLRGPGETQLETDRRLLRNRIVQIQSRLEKVEKQREQGRQSRIKADVPTVSLVGYTNAGKSTLFNQITEARVYAADQLFATLDPTLRRIDVADVGETVLADTVGFIRHLPHDLVAAFKATLQETRQATLLLHVVDAADVRVQENIEAVNTVLEEIDAHEIPTLMVMNKIDMLDDFEPRIDRDEENKPIRVWLSAQSGVGIPQLFQALTERLSGEVAQHTLRLPPQEGRLRSRFYQLQAIEKEWMEEDGSVSLQVRMPIVDWRRLCKQEPALIEYVILEHHHHHH	soluble
MFDSLAKAGKYLGQAAKLMIGMPDYDNYVEHMRVNHPDQTPMTYEEFFRERQDARYGGKGGARCC	soluble
MFDTKIAVILRDDLAVWQKLNVTAFLMSGIVAQTGEIIGEPYRDGAGNVYNPLSIQPIVVMATDQEALRKIHQRSLERDITTSLYIEEMFATGHDAANRQVFSHFSPDTAKVVGMALRADRKIVDKITKGAKLHA	soluble
MFENNETLIVWSETDVMDLALSFQEKSGCEELWQKICEVQGRDPGDPDATFDDGDDSDVGEMPSSASRLQLPPIEIGRLGELDALLHMHLTTNSAREKMTLAIENDNVVTKLCEVFRMCEDIEHTEGLRTFYSIVKNLFMLNRNTVIEMLLDDNNIKDVIGMFEFDPAYKHPRKHRDFVYKKAKFREVLNISCDELRDKIHRLYRAQYIQDACLPSLGLFEENLLSTLSSHVFFCRVDIVTLLQKDKKAMSELFGQLISEETDVIRRRDLALFLKEMISLSTSIPSNGPAATKETFFKVLQNMFNSEILDSLEPCFKSPDHETRAVMVDVLRTMVDANAQMIRDFLLKQSKTKDKNEDVLLNMMIRHLLTDIDVHLTSGSEIVLIMKTLLDPENMTTVKSERSDFLQLFYNRCYESLLKPILENVSGGNIKKDDYMIANRQSVILRLLTFCVEHHSFSMRQRCVSNDLMNKVLVLLKSKHSFLVLSALKLLQRVVTVKDDKYIRYIVKEKVLDPVMECFRKNGNRYNIINSSVLHLFEFVRSEDVRPLIKYVVENHMEVVDSVNYVKTFKEIKIRYDQHRDREETMSVRSEDNSLASPRSFRKDRNEDQWFDEDEDLEVGTMLESIEKDSVAVSPKKEEAGQRKTGMEPMFPSLLKRKNAFDDDEAPVFGGGSAAVINNTEKKIVIKVNSDRSPSRTPSPASSPRASSSPGPSRDDEVTSSQNNKESSPTPTVKSLVDYDESDDSDDDPPSPDAVPSSSTGSPEKEGDSADGKKGDSPEYNDVSSTSNEEKFDSRNGAPVTNENGGVEAAAPTVEISRKRTSDGIDPDAKRIRTEETAPAATATVSQA	not soluble
